B1: GFP-tagged PRR14 (1-212) wild-type fragment [human] / Heterochromatin Protein 1 beta (HP1β) [human (endogenous in Lenti-X 293T)] (parent complex)
chain 1: MDLPGDSSPPGQPRLCRQPLTRALWGARSPKRPRLQLPGAPSPLEKASRRVLAVVLEDVMAVHMVPVVPSKQTSIPQHHSYHQDPVHRQPPASPPRQAGWSSQARPPDPLCLCREPLSRIHRTSSTLRRRSRTTPGPEEGPSQKVDRAPQPTLVVMLEDIASPRPPAEGFIDETPNFIIPAQRAEPMRIVRQPTPPPGDLEPPFQPSALPAD
chain 2: not shown
B2: GFP-tagged PRR14 (1-212) wild-type fragment [human] / Heterochromatin Protein 1 gamma (HP1γ) [human (endogenous in Lenti-X 293T)] (parent complex)
chain 1: B1 chain 1
chain 2: not shown

Variants of: B1
Test: co-immunoprecipitation (anti-GFP IP) with Western blot, band intensity quantified; lysates of 293T cells expressing GFP-PRR14 (1-212) constructs; n = 3 independent immunoprecipitations; parent: 91; read off a plot

Row | Variant | response
1 | chain 1 V54E, chain 1 V55E | ~35
2 | chain 1 V154E, chain 1 V155E | ~91
3 | chain 1 V54E, chain 1 V55E, chain 1 V154E, chain 1 V155E | ~43

Variants of: B2
Test: co-immunoprecipitation (anti-GFP IP) with Western blot, band intensity quantified; lysates of 293T cells expressing GFP-PRR14 (1-212) constructs; n = 3 independent immunoprecipitations; parent: 95; read off a plot

Row | Variant | response
4 | chain 1 V54E, chain 1 V55E, chain 1 V154E, chain 1 V155E | ~6
5 | chain 1 V154E, chain 1 V155E | ~95
6 | chain 1 V54E, chain 1 V55E | ~17
